Test results reported in PMC7196836, “Molecular analysis of the ribosome recycling factor ABCE1 bound to the 30S post‐splitting complex” (The EMBO Journal, 2020).

Target: ribosomal protein uS12 of Thermococcus celer (T. celer (endogenous in T. celer cells), UniProt P29161 1-147)
Experiment: cryo-EM structure; post-splitting complex from 1 nmol T. celer 70S split by ABCE1^IIEA (8 uM), aPelota and aRF1 (5 uM each), 0.5 mM AMP-PNP, 50 mM HEPES-KOH pH 7.5, 30 mM KCl, 10 mM MgCl2, 2 mM DTT, 65 °C 15 min; cross-linked with 1% formaldehyde; 30S fractions of a 10-30% sucrose gradient
Settings: both partners purified

B1: ABCE1^IIEA (E238A/E485A), hydrolysis-deficient ABCE1 from Saccharolobus solfataricus (enzyme)
chain: MRVAVINYDFCKPDKCNLECINFCPVDRSGGKAIELSEIVKGKPVIYEETCIGCGICVKKCPYEAISIVNLPDELEGEVIHRYKVNGFKLFGLPTPKNNTILGVLGKNGVGKTTVLKILAGEIIPNFGDPNSKVGKDEVLKRFRGKEIYNYFKELYSNELKIVHKIQYVEYASKFLKGTVNEILTKIDERGKKDEVKELLNMTNLWNKDANILSGGGLQRLLVAASLLREADVYIFDAPSSYLDVRERMNMAKAIRELLKNKYVIVVDHDLIVLDYLTDLIHIIYGESSVYGRVSKSYAARVGINNFLKGYLPAENMKIRPDEIKFMLKEVSDLDLSKDLKTKMKWTKIIKKLGDFQLVVDNGEAKEGEIIGILGPNGIGKTTFARILVGEITADEGSVTPEKQILSYKPQRIFPNYDGTVQQYLENASKDALSTSSWFFEEVTKRLNLHRLLESNVNDLSGGELQKLYIAATLAKEADLYVLDAPSSYLDVEERYIVAKAIKRVTRERKAVTFIIDHDLSIHDYIADRIIVFKGEPEKAGLATSPVTLKTGMNEFLRELEVTFRRDAETGRPRVNKIGSYLDRVQKERGDYYS
notes: ABCE1, ABC-type twin-ATPase, Saccharolobus solfataricus; both catalytic glutamates changed to alanine; Carries iron-sulfur clusters (FeSD); also called ABCE1 E238A/E485A; source: E. coli, recombinant (pSA4 plasmid), purified
B1: binds.
